Read-outs that look alike come from different tables or passages of the source. *1 amine or outer side, *2 acyl side, *3 side chain or, on linkers, in order; H or OH if unused. Bridges are numbered along the chain shown (N, C = ends). Primed or numbered codes have the meaning given here. [ ]: non-standard residue; d: D form. Phe(4-OMe)(3) = O-methyl-L-tyrosine (4-methoxy-L-phenylalanine), COc1ccc(C[C@H](N[*:1])C(=O)[*:2])cc1; Phe(4-OMe) = 4-methoxy-L-phenylalanine (O-methyl-L-tyrosine), COc1ccc(C[C@H](N[*:1])C(=O)[*:2])cc1; Phe(4-OMe)(4) = O-methyl-L-tyrosine, COc1ccc(C[C@H](N[*:1])C(=O)[*:2])cc1; Trp(6-Cl) = N[C@@H](Cc1c[nH]c2cc(Cl)ccc12)C(=O)O; 2Nal = N[C@@H](Cc1ccc2ccccc2c1)C(=O)O; AEF = NCCOc1ccc(C[C@H](N)C(=O)O)cc1; αMeL = CC(C)C[C@](C)(N)C(=O)O; hLeu = CC(C)CC[C@H](N)C(=O)O; αMeK = C[C@](N)(CCCCN)C(=O)O; Abu = CC[C@H](N)C(=O)O; Aib = CC(C)(N)C(=O)O
T1: Rat IL-23R_huFC (rat, UniProt F1LX96 39-369)
T1 sequence: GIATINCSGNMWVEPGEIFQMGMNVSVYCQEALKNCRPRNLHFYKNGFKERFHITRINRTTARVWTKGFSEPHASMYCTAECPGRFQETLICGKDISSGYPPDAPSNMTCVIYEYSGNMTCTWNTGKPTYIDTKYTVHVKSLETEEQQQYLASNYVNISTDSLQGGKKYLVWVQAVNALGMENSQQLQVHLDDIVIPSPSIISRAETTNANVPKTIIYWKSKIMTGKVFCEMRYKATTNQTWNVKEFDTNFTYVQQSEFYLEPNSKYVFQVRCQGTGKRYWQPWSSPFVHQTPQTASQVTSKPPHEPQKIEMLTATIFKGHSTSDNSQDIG

T2: IL-23R on human cells (IL-23R-expressing DB cells; human NK cells) (human, UniProt Q5VWK5 24-629)
T2 sequence (looked up): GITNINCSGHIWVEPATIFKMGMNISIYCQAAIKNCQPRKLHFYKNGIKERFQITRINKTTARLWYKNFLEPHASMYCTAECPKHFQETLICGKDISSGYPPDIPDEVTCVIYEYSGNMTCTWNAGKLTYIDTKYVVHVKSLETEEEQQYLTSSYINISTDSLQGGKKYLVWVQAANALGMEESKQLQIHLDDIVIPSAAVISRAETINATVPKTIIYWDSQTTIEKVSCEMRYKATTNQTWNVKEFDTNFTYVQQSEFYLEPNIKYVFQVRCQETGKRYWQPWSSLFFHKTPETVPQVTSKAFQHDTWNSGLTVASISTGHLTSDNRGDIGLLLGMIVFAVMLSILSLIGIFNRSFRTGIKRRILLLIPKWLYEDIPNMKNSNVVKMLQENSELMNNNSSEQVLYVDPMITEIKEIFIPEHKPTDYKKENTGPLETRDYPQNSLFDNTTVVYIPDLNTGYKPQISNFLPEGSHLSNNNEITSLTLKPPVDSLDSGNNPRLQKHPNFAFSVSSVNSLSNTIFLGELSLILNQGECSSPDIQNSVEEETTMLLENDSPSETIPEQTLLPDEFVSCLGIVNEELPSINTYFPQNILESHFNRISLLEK

T3: IL23R_huFC (human, UniProt Q5VWK5 24-353)
T3 sequence (looked up): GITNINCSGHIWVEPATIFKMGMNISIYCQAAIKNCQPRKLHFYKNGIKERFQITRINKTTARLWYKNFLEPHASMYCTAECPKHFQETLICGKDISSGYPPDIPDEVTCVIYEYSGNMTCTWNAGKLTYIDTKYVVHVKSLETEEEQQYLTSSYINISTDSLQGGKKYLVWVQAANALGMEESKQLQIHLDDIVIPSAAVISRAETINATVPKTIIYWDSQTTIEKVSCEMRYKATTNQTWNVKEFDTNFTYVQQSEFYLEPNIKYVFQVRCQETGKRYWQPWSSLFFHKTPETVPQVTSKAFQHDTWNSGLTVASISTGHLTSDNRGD


Experiments:
Rat IL-23R_huFC [1] = target: T1, Rat IL-23R_huFC; assay: rat IL-23R competitive binding ELISA
[2] = target: T2, IL-23R on human cells …; assay: cell-based or functional assay
IL23R_huFC [3] = target: T3, IL23R_huFC; assay: human ELISA vs IL-23
Rat IL-23R_huFC [4] = target: Rat IL-23R_huFC (rat); assay: rat ELISA vs IL-23
Rat IL-23R_huFC [5] = target: Rat IL-23R_huFC (rat); assay: rat ELISA vs IL-23; remark: listed apart in the source
IL23R_huFC [6] = target: T3, IL23R_huFC; assay: human ELISA vs IL-23; remark: listed apart in the source

| IC50 (Rat IL-23R_huFC [1]) [nM] | pStat3 HTRF IC50 [2] [nM] | IC50 (IL23R_huFC [3]) [nM] | IC50 (Rat IL-23R_huFC [4]) [nM] | IC50 (Rat IL-23R_huFC [5]) [nM] | IC50 (IL23R_huFC [6]) [nM] | Binder |
| --- | --- | --- | --- | --- | --- | --- |
| 25 to 100 | – | – | – | – | – | XQTWQXFXKKNG (Ac; Pen-Pen disulfide; Phe(4-OMe); 2-Nal; α-MeLys; Lys(Ac); NH2) [Ac-[Pen]-QTWQ-[Pen]-[Phe(4-OMe)]-[2-Nal]-[α-MeLys]-[Lys(Ac)]-NG-NH2] |
| 25 to 100 | – | – | – | – | – | XQTWQXFXKKNN (Ac; Pen-Pen disulfide; Phe(4-CONH2); 2-Nal; α-MeLys; Lys(Ac); NH2) [Ac-[Pen]-QTWQ-[Pen]-[Phe(4-CONH2)]-[2-Nal]-[α-MeLys]-[Lys(Ac)]-NN-NH2] |
| 10 to 25 | – | – | – | – | – | XQTWQXFXVKNN (Ac; Pen-Pen disulfide; Phe(4-CONH2); 2-Nal; α-MeVal; Lys(Ac); NH2) [Ac-[Pen]-QTWQ-[Pen]-[Phe(4-CONH2)]-[2-Nal]-[α-MeVal]-[Lys(Ac)]-NN-NH2] |
| 10 to 25 | – | – | – | – | – | XQTWQXFXKKNN (Ac; Pen-Pen disulfide; Phe[4-(2-aminoethoxy)]; 2-Nal; α-MeLys; Lys(Ac); NH2) [Ac-[Pen]-QTWQ-[Pen]-[Phe[4-(2-aminoethoxy)]-[2-Nal]-[α-MeLys]-[Lys(Ac)]-NN-NH2] |
| – | < 10 | 10 to 25 | 25 to 100 | – | – | Ac-[Abu]NTWQC[Phe(4-OMe)(4)][2Nal][αMeK]K(Ac)NG-NH2 (thioether 1-6) [Ac-Cyclo-[[Abu]-NTWQC]-[Phe(4-OMe)]-[2-Nal][α-MeLys]-[Lys(Ac)]-NG-NH2] |
| – | < 10 | 10 to 25 | – | 10 to 25 | – | Ac-[Abu]QT[Trp(6-Cl)]QC[AEF][2Nal][αMeK]ENG-NH2 (thioether 1-6) [Ac-Cyclo-[[Abu]-QT-[6-chloroTrp]-QC]-[Phe[4-(2-aminoethoxy)]]-[2-Nal]-[α-MeLys]-ENG-NH2] |
| – | – | – | – | 10 to 25 | – | Ac-[Abu]QTWQCY[2Nal][αMeK]ENG-NH2 (thioether 1-6) [Ac-Cyclo-[[Abu]-QTWQC]-Y-[2-Nal]-[α-MeLys]-ENG-NH2] |
| – | < 10 | 10 to 25 | 25 to 100 | – | – | Ac-[Abu]QTWQC[Phe(4-OMe)][2Nal][αMeK]ENG-NH2 (thioether 1-6) [Ac-Cyclo-[[Abu]-QTWQC]-[Phe(4-OMe)]-[2-Nal]-[α-MeLys]-ENG-NH2] |
| – | < 10 | – | – | 10 to 25 | < 10 | Ac-[Abu]QTWQC[Phe(4-OMe)(3)][2Nal][αMeK]K(Ac)NA-NH2 (thioether 1-6) [Ac-Cyclo-[[Abu]-QTWQC]-[Phe(4-OMe)]-[2-Nal][α-MeLys]-[Lys(Ac)]-NA-NH2] |
| – | < 10 | 10 to 25 | – | – | – | Ac-[Abu]QTWQC[AEF][2Nal][αMeK]RNG-NH2 (thioether 1-6) [Ac-Cyclo-[[Abu]-QTWQC]-[Phe[4-(2-aminoethoxy)]]-[2-Nal]-[α-MeLys]-RNG-NH2] |
| – | < 10 | – | – | 10 to 25 | < 10 | Ac-[Abu]QTWQC[AEF][2Nal][αMeK]DNG-NH2 (thioether 1-6) [Ac-Cyclo-[[Abu]-QTWQC]-[Phe[4-(2-aminoethoxy)]]-[2-Nal][α-MeLys]-DNG-NH2] |
| – | < 10 | 10 to 25 | 25 to 100 | – | – | Ac-[Abu]QTWQCYW[αMeL]ENG-NH2 (thioether 1-6) [Ac-Cyclo-[[Abu]-QTWQC]-YW-[α-MeLeu]-ENG-NH2] |
| – | – | 10 to 25 | – | 10 to 25 | – | Ac-[Abu]QTWQC[Phe(4-OMe)]W[αMeK]K(Ac)NG-NH2 (thioether 1-6) [Ac-Cyclo-[[Abu]-QTWQC]-[Phe(4-OMe)]-W-[α-MeLys]-[Lys(Ac)]-NG-NH2] |
| – | < 10 | 10 to 25 | – | – | – | Ac-[Abu]QTWQC[AEF]W[hLeu]ENG-NH2 (thioether 1-6) [Ac-Cyclo-[[Abu]-QTWQC]-[Phe[4-(2-aminoethoxy)]]-W-[hLeu]-ENG-NH2] |
| – | < 10 | 10 to 25 | – | – | – | Ac-[Abu]QTWQC[AEF]W[Aib]ENN-NH2 (thioether 1-6) [Ac-Cyclo-[[Abu]-QTWQC]-[Phe[4-(2-aminoethoxy)]]-W-[Aib]-ENN-NH2] |
| – | < 10 | 10 to 25 | 25 to 100 | – | – | Ac-[Abu]QTWQC[Phe(4-OMe)][2Nal][Aib]K(Ac)NG-NH2 (thioether 1-6) [Ac-Cyclo-[[Abu]-QTWQC]-[Phe(4-OMe)]-[2-Nal]-[Aib]-[Lys(Ac)]-NG-NH2] |
| – | < 10 | 10 to 25 | – | – | – | Ac-[Abu]QTWQC[AEF][2Nal][Aib]EK(Ac)G-NH2 (thioether 1-6) [Ac-Cyclo-[[Abu]-QTWQC]-[Phe[4-(2-aminoethoxy)]]-[2-Nal]-[Aib]-E-[Lys(Ac)]-G-NH2] |
| – | < 10 | 10 to 25 | – | – | – | Ac-[Abu]QTWQC[AEF][2Nal][Aib]K(Ac)QG-NH2 (thioether 1-6) [Ac-Cyclo-[[Abu]-QTWQC]-[Phe[4-(2-aminoethoxy)]]-[2-Nal]-[Aib]-[Lys(Ac)]-QG-NH2] |
| – | < 10 | – | – | 10 to 25 | < 10 | Ac-[Abu]QTWQC[Phe(4-OMe)(3)][2Nal][αMeK]K(Ac)NAE-NH2 (thioether 1-6) [Ac-Cyclo-[[Abu]-QTWQC]-[Phe(4-OMe)]-[2-Nal][α-MeLys]-[Lys(Ac)]-NAE-NH2] |

— patent US20190300590A1 (PROTAGONIST THERAPEUTICS, published 2019)
